Results on one protein are retold here after article PMC4575908.

Substrate in this data set: O=C(O)[C@H]1O[C@@H](Oc2ccc([N+](=O)[O-])cc2)[C@H](O)[C@@H](O)[C@@H]1O
Format: biochemical. The conditions noted are these: 37.0 °C.

One may read the Km as the concentration of substrate that gives half-maximal velocity. A word on the kcat: it is the number of substrate molecules converted per active site and unit of time at saturation. In general, kcat/Km refers to the turnover number divided by the Michaelis constant.

B1: SaGUS (Streptococcus agalactiae 2603V/R) (protein)
chain: MLYPLLTKTRNTYDLGGIWNFKLGEHNPNELLPSDEVMVIPTSFNDLMVSKEKRDYIGDFWYEKVIEVPKVSEDEEMVLRFGSVTHQAKIYVDGVLVGEHKGGFTPFEVLVPECKYNNEKIKVSICANNVLDYTTLPVGNYSEIIQEDGSIKKKVRENFDFFNYAGVHRPLKLMIRPKNHIFDITITSRLSDDLQSADLHFLVETNQKVDEVRISVFDEDNKLVGETKDSRLFLSDVHLWEVLNAYLYTARVEIFVDNQLQDVYEENFGLREIEVTNGQFLLNRKPIYFKGFGKHEDTFINGRGLNEAANLMDLNLLKDMGANSFRTSHYPYSEEMMRLADRMGVLVIDEVPAVGLFQNFNASLDLSPKDNGTWNLMQTKAAHEQAIQELVKRDKNHPSVVMWVVANEPASHEAGAHDYFEPLVKLYKDLDPQKRPVTLVNILMATPDRDQVMDLVDVVCLNRYYGWYVDHGDLTNAEVGIRKELLEWQDKFPDKPIIITEYGADTLPGLHSTWNIPYTEEFQCDFYEMSHRVFDGIPNLVGEQVWNFADFETNLMILRVQGNHKGLFSRNRQPKQVVKEFKKRWMTIPHYHNKKNSVK
With B1, the Km came to 360 ± 30 µM, the kcat stood at 80 ± 2 s⁻¹ and the kcat/Km was 224000 M⁻¹ s⁻¹.
